Experimental data taken from publication doi:10.1101/2025.03.28.645892, “Plant-specific adaptations of the CDC48 unfoldase” (bioRxiv, 2025).

How the values were obtained:
[1] = molecular target: T1, Arabidopsis thaliana CDC48A (Arabidopsis thaliana, UniProt P54609 1-809); experiment: ITC; AtCDC48A in the cell (30 µM; 10 µM for AtNPL4B UBXL), partner 200 µM in the syringe; 2 mM AMPPNP; 50 mM Bis-Tris pH 6.5, 100 mM NaCl, 1 mM TCEP, 2 mM MgCl2; 25°C; details: both partners purified
T1 construct: Cell division cycle protein 48 A (AtCDC48A), Arabidopsis thaliana, locus AT3g09840; recombinant full-length protein; Homo-hexamer; ADP-saturated or nucleotide-free in some experiments (told by the assay); also called AtCDC48A; AtCDC48; not shown: GST, N-terminal, cleaved
T1 sequence (P54609 whole entry): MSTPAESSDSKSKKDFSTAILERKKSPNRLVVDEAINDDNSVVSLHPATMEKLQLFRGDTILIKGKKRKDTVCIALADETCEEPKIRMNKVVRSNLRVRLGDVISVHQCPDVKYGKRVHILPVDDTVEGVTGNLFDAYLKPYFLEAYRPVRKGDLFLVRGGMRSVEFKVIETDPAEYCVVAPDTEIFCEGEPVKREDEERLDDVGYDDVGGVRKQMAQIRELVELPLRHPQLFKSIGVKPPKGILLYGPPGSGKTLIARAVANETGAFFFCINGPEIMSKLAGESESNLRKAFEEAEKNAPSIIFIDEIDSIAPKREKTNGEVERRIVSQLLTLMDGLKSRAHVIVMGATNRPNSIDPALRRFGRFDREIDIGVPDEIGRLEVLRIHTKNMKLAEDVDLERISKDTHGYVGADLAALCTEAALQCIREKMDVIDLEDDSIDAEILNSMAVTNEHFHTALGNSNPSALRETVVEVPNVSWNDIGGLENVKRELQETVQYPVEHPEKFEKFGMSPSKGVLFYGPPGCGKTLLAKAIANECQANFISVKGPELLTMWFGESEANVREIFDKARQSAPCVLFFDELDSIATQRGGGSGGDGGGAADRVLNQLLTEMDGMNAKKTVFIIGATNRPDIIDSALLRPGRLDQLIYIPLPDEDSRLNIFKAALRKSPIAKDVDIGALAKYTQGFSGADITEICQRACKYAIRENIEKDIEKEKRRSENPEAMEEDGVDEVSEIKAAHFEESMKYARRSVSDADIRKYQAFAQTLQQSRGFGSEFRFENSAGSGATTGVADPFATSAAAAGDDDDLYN

[2] = molecular target: T2, Arabidopsis thaliana NPL4 (Arabidopsis thaliana, UniProt O82264 1-413, Alexa-488 dye label in the MST experiments only); experiment: MST; Alexa-488-labelled AtNPL4 (50 nM dye solution mixed 1:1), AtUFD1A or AtUFD1B titrated in 16 dilutions; pH 7.5 (50 mM Tris-HCl, 100 mM NaCl, 1 mM TCEP), Tween-20; details: both partners purified
T2 construct: Nuclear protein localisation protein 4 (AtNPL4), Arabidopsis thaliana, locus AT2g47970; cDNA cloned into pGEX6P-1; also called AtNPL4; wild-type AtNPL4; not shown: GST, N-terminal, cleaved
T2 sequence: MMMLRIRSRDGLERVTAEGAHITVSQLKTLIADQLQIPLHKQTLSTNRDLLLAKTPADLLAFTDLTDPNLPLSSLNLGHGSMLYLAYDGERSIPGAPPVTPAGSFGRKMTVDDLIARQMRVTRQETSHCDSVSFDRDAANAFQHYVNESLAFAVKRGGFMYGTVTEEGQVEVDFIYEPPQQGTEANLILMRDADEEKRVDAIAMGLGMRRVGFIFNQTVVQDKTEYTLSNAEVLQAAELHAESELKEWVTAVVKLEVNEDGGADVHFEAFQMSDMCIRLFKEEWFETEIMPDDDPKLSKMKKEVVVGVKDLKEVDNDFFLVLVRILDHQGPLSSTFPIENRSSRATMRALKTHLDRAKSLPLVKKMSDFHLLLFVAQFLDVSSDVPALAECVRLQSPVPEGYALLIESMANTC

B1: AtNPL4B UBXL domain (domain or fragment, Arabidopsis thaliana, UniProt Q9LYC2 1-89, looked up)
chain: MTMLRVRSRDGLERVSVDGPHITVSQLKTLIQDQLQIPIHNQTLSTNRNLLLAKSPSDFLAFTDMADPNLRISSLNLAHGSMVYLAYEG
notes: UBX-like (UBXL) domain of AtNPL4B, Arabidopsis thaliana, locus AT3g63000, residues 1-89; also called the isolated UBXL domain; not shown: GST, N-terminal, cleaved
stoichiometry N [1]: 6 AtNPL4B_(UBXL) per hexamer

B2: AtNPL4B F105A (natural protein, Arabidopsis thaliana, UniProt Q9LYC2 1-413, looked up)
chain: MTMLRVRSRDGLERVSVDGPHITVSQLKTLIQDQLQIPIHNQTLSTNRNLLLAKSPSDFLAFTDMADPNLRISSLNLAHGSMVYLAYEGERTIRGGPAVTPAGSAGRKMTVEDLIARQMRVGRQEKAHCDSVSFDRDCANAFQHFVNESLAFAVKRGGFMYGNVSEDGQVEVNFIYEPPQQGMEDNLILMRDSEEEKRVDAIALGLGMRRVGFIFNQTVTQDKKEYTLSNVEVLLAAQLHAESELKEWVTAVVKLEINEDGGADVHFEPFQMSDMCVRLFKEGWFETEIGPEDDPKLSKLKKEVVVGVKDVKEVDNDFFLVLVKILDHQGPLSCTFPIENRNTQTTMRALKTHMERARSLPFVKRISDFHLLLFVAQFLDVSSDVPALAECVRLQSHVPEGYELLIDSMANTS
notes: AtNPL4B, second NPL4 variant of Arabidopsis thaliana, locus AT3g63000 (84% identical to AtNPL4); ordered from Twist Biosciences in pGEX6P-1; The wild-type AtNPL4B was not measured; also called the F105 mutant; not shown: GST, N-terminal, cleaved
binding result [1]: binds

B3: Arabidopsis thaliana UFD1B (natural protein, UniProt Q9SJV0 1-340, looked up)
chain: MVLRFCCHLLTYSVSLLPPITMFFDGYHYHGTTFEQSYRCYPASFIDKPQLESGDKIIMPPSALDRLASLHIDYPMLFELRNAGIERVTHCGVLEFIAEEGMIYMPYWMMQNLLLQEGDIVRVRNVTLPKGTYVKLQPHTTDFLDISNPKAILETALRNYSCLTSGDSIMVPYNNKKYFIDIVETKPANAISIIETDCEVDFAPPLDYKEPERPTAPSAAKGPAKAEEVVDEPEPKFNPFTGSGRRLDGRPLAYEPAPASSSKGKQPVVANGNGQSSVASSSEKATRAQGKLVFGANGNRAPKEAAPKVGAAKETKKEEQEKKDEPKFQAFSGKKYSLRG
notes: Ubiquitin fusion degradation protein 1 paralogue B (AtUFD1B), Arabidopsis thaliana, locus AT2g21270; cDNA cloned into pGEX6P-1; also called AtUFD1B; AtUFD1; not shown: GST, N-terminal, cleaved
Kd [2]: > 200 µM
